Measurements taken from article PMC8477192, “An ionic lock and a hydrophobic zipper mediate the coupling between an insect pheromone receptor BmOR3 and downstream effectors” (The Journal of Biological Chemistry, 2021).

Experiments:
[1] = target: Rluc-BmOrco; assay: intermolecular BRET; conditions: bombykal-induced, read off a plot
[2] = target: T1, YFP-BmOR3 (Bombyx mori, UniProt Q5FBE0 1-439); assay: intermolecular BRET; conditions: bombykal-induced, read off a plot
T1 construct: BmOR3, pheromone (bombykal) receptor of Bombyx mori; also called N-terminal YFP-tagged BmOR3; YFP-WT-BmOR3; source: HEK293, transfected, in living cells; not shown: YFP, N-terminal, kept
T1 sequence (looked up): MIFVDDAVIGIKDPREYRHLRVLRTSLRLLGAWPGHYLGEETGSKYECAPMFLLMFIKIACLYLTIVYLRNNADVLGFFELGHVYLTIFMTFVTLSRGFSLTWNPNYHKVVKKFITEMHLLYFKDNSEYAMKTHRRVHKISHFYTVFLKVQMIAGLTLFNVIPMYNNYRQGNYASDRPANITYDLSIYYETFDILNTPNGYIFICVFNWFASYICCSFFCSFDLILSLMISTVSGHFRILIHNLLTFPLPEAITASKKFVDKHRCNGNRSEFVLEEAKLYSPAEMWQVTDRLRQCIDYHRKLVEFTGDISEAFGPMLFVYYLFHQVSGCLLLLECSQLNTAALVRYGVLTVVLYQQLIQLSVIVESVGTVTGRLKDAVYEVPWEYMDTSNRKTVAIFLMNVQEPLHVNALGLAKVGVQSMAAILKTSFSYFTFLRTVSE

[3] = target: Rluc-BmArr; assay: intermolecular BRET; conditions: bombykal-stimulated; parent: est. 0.012; read off a plot
[4] = tested on: BmOR3 and BmOrco; assay: CalfluxVTN Ca2+ assay (BRET-based calcium sensor); format: cell-based, Bombyx mori; conditions: HEK293 cells; pretreatment 100 ng/ml
Description: HEK293 cells were cotransfected with plasmids encoding WT BmOR3 and BmOrco or their mutants, or AT1R together with CalfluxVTN probe. 24 h after transfection, cells were redistributed into 96-well flat-bottomed microplates. After another 24 h, cells were incubated with conventional buffer with Ca^2+ (135 mM NaCl, 5 mM KCl, 1 mM CaCl2, 5 mM D-glucose, 10 mM Hepes; pH = 7.4) or with Ca^2+-free buffer (135 mM NaCl, 5 mM KCl, 1 mM EGTA, 5 mM D-glucose, 10 mM Hepes; pH = 7.4), and stimulated with different concentrations of Bombykal (or AngII). The BRET ratio between Venus and Nluc was measured before (baseline) and after the addition of the Nluc substrate furimazine (5 μM) using a Mithras LB 940 multimode reader (Berthold Technologies). The BRET signal was calculated as ratio of emission of Venus (530 nm) to Nluc (460 nm). The baseline value was subtracted from the bombykal-stimulated BRET signal to obtain the ΔBRET value.

[5] = target: T2, BmOR3–BmOrco (Bombyx mori, UniProt Q5FBE0); assay: BmOR3–BmOrco intermolecular BRET assay; format: cell-based; conditions: HEK293 cells; pretreatment 100 ng/ml
T2 sequence (Q5FBE0 1-439): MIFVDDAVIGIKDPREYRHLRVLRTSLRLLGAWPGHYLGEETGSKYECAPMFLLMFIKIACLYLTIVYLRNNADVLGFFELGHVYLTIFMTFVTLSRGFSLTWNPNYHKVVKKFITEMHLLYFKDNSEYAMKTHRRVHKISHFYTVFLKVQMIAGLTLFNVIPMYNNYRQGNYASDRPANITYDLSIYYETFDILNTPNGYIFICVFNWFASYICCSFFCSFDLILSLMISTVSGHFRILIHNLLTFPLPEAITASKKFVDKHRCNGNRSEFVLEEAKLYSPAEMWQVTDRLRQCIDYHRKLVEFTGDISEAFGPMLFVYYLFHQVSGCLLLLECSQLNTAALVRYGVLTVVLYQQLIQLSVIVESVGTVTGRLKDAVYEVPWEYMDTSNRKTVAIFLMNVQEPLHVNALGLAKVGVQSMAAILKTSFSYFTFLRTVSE
T2 sequence (Q7YT34 1-472 partner): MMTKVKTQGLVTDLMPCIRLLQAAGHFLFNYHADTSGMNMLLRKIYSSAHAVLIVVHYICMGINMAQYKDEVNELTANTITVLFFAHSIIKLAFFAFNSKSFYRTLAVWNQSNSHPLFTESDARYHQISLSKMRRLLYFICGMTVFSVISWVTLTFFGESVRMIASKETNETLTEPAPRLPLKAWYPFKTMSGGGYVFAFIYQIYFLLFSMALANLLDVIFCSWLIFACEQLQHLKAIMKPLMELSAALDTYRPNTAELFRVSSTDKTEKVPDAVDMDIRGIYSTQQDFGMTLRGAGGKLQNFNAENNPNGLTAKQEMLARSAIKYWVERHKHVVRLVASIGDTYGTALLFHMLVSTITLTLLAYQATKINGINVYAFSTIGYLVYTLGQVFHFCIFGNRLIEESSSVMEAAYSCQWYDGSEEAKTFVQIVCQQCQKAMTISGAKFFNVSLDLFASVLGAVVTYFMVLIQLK
Description: HEK293 cells were cotransfected with the N-terminal Rluc-tagged WT BmOR3 together with N-terminal YFP-fused BmOrco plasmids or their mutants. Twenty-four hours after transfection, cells were distributed into a 96-well microplate. After another 24 h, the cells were stimulated with different concentrations of bombykal for 5 min. BRET between RLuc and YFP was measured using a Mithras LB 940 multimode reader after the addition of the RLuc substrate coelenterazine h (5 μM). The BRET signal was calculated as the ratio of emission of YFP (530 nm) to RLuc (485 nm). For the saturation BRET between Rluc-BmOrco and YFP-BmOR3, HEK293 cells were transfected with a fixed amount of Rluc-BmOrco and increasing amounts of YFP-BmOR3. The BRET signal between RLuc and YFP was directly measured after the addition of the substrate coelenterazine h (5 μM).

[6] = target: T3, BmOR3 (Bombyx mori, UniProt Q5FBE0); assay: Arrestin-kinase BRET assay; format: cell-based; conditions: HEK293 cells transfected with BmOR3; pretreatment
Description: Twenty-four hours after transfection, cells were distributed into a 96-well microplate. After another 24 h, the cells were stimulated with 1 μM bombykal (for BmOR3-transfected cells) or 1 μM AngII for 10 min (for AT1R-transfected cells). BRET between RLuc and YFP was measured using a Mithras LB 940 multimode reader after the addition of the RLuc substrate coelenterazine h (5 μM). The BRET signal was calculated as the ratio of emission of YFP (530 nm) to RLuc (485 nm).

[7] = target: T3, BmOR3; assay: Arrestin recruitment BRET assay; format: cell-based; conditions: HEK293 cells; pretreatment
Description: HEK293 cells were transiently cotransfected with the N-terminal YFP-tagged BmOR3 together with N-terminal Rluc-fused β-arrestin-1, β-arrestin-2, or BmArr plasmids. Twenty-four hours after transfection, cells were distributed into a 96-well microplate and incubated for additional 24 h. The cells were stimulated with varying concentrations of bombykal for 10 min, and the BRET signal between YFP (530 nm) and Rluc (485 nm) was measured after the addition of the Rluc substrate coelenterazine h (5 μM) using a Mithras LB 940 multimode reader (Berthold Technologies). The BRET signal was calculated as the ratio of emission of YFP to Rluc.

[8] = target: T1, YFP-BmOR3; assay: FRET or BRET; G protein recruitment BRET in living HEK293 cells; YFP-BmOR3 with Gi-Rluc; increasing bombykal for 2 min; net BRET after subtracting cells with Gi-Rluc only; net BRET also without bombykal; BmOrco coexpression without significant effect; conditions: partners not purified
[9] = target: T1, YFP-BmOR3; assay: FRET or BRET; arrestin recruitment BRET in living HEK293 cells; YFP-BmOR3 (WT or mutant) with Rluc-fused arrestin; bombykal for 10 min; pertussis toxin without effect; enhanced by BmOrco coexpression; conditions: partners not purified
[10] = HEK293 cells, parent: est. 0.027
[11] = HEK293 cells, parent: est. 0.053

With YFP-BmOR3 (from UniProt Q5FBE0) E403K the response ([1]; parent: est. 0.038) was 0 ΔBRET.

With Rluc-BmOrco V428A; V431A the response [2, 10] was 0.031 ΔBRET.

In the case of Rluc-BmOrco F427A; I430A, the response [2, 10] is reported as 0.031 ΔBRET.

In the case of “YFP-BmOR3 (from UniProt Q5FBE0) I396A; M399A”, the response [1, 11] is reported as 0.042 ΔBRET.

“YFP-BmOR3 (from UniProt Q5FBE0) T25A; S26A; T42A” was tested, and the response [3] was 0.0024 ΔBRET.

YFP-BmOR3 (from UniProt Q5FBE0) T25A was tested, and the response [3] was 0.0082 ΔBRET.

For Rluc-BmOrco Y464A; V467A; L468A; L471A, the response [2, 10] was -0.006 ΔBRET and the response ([2]; parent: est. 0.015) was -0.005 ΔBRET.

With YFP-BmOR3 (from UniProt Q5FBE0) T42A the response [3] was 0.0086 ΔBRET.

For pertussis toxin [PTX], the “effect of pretreatment on bombykal-induced complex-regulated calcium influx” value [4] was “no significant effects”, the “effect of pretreatment on bombykal-induced BmOR3–BmOrco complex formation” value [5] was “no significant effects” and the “effect of pretreatment on bombykal-induced association of β-arrestin with ERK, SRC, and AKT” value [6] was “not significantly affected”. For the same molecule, the “effect of pretreatment on bombykal-induced β-arrestin recruitment to BmOR3” value [7] was “not affected”.

“YFP-BmOR3 (from UniProt Q5FBE0) V394A; L398A” was tested, and the response [1, 11] was 0.041 ΔBRET.

For “YFP-BmOR3 (from UniProt Q5FBE0) L410A; L412A”, the response [1, 11] was 0.04 ΔBRET.

B1: Gi3-Rluc (natural protein, UniProt P08754 1-354, looked up)
chain: MGCTLSAEDKAAVERSKMIDRNLREDGEKAAKEVKLLLLGAGESGKSTIVKQMKIIHEDGYSEDECKQYKVVVYSNTIQSIIAIIRAMGRLKIDFGEAARADDARQLFVLAGSAEEGVMTPELAGVIKRLWRDGGVQACFSRSREYQLNDSASYYLNDLDRISQSNYIPTQQDVLRTRVKTTGIVETHFTFKDLYFKMFDVGGQRSERKKWIHCFEGVTAIIFCVALSDYDLVLAEDEEMNRMHESMKLFDSICNNKWFTETSIILFLNKKDLFEEKIKRSPLTICYPEYTGSNTYEEAAAYIQCQFEDLNRRKDTKEIYTHFTCATDTKNVQFVFDAVTDVIIKNNLKECGLY
notes: G protein alpha subunit Gi3 (Gαi3); also called Gαi-Rluc; Rluc-tagged Gi protein; source: HEK293, transfected, in living cells
B1 was tested, and the “EC50 of bombykal for the BRET increase” value [8] was 10.6 ± 2.06 nM.

B2: Gi2-Rluc (natural protein, UniProt P04899 1-355, looked up)
chain: MGCTVSAEDKAAAERSKMIDKNLREDGEKAAREVKLLLLGAGESGKSTIVKQMKIIHEDGYSEEECRQYRAVVYSNTIQSIMAIVKAMGNLQIDFADPSRADDARQLFALSCTAEEQGVLPDDLSGVIRRLWADHGVQACFGRSREYQLNDSAAYYLNDLERIAQSDYIPTQQDVLRTRVKTTGIVETHFTFKDLHFKMFDVGGQRSERKKWIHCFEGVTAIIFCVALSAYDLVLAEDEEMNRMHESMKLFDSICNNKWFTDTSIILFLNKKDLFEEKITHSPLTICFPEYTGANKYDEAASYIQSKFEDLNKRKDTKEIYTHFTCATDTKNVQFVFDAVTDVIIKNNLKDCGLF
notes: G protein alpha subunit Gi2 (Gαi2); also called Gαi-Rluc; Rluc-tagged Gi protein; source: HEK293, transfected, in living cells
B2 was tested, and the “EC50 of bombykal for the BRET increase” value [8] was 22 ± 3.22 nM.

B3: N-terminal Rluc-fused β-arrestin-1 (natural protein, UniProt P49407 1-418, looked up)
chain: MGDKGTRVFKKASPNGKLTVYLGKRDFVDHIDLVDPVDGVVLVDPEYLKERRVYVTLTCAFRYGREDLDVLGLTFRKDLFVANVQSFPPAPEDKKPLTRLQERLIKKLGEHAYPFTFEIPPNLPCSVTLQPGPEDTGKACGVDYEVKAFCAENLEEKIHKRNSVRLVIRKVQYAPERPGPQPTAETTRQFLMSDKPLHLEASLDKEIYYHGEPISVNVHVTNNTNKTVKKIKISVRQYADICLFNTAQYKCPVAMEEADDTVAPSSTFCKVYTLTPFLANNREKRGLALDGKLKHEDTNLASSTLLREGANREILGIIVSYKVKVKLVVSRGGLLGDLASSDVAVELPFTLMHPKPKEEPPHREVPENETPVDTNLIELDTNDDDIVFEDFARQRLKGMKDDKEEEEDGTGSPQLNNR
notes: β-arrestin-1; also called βarr1; source: HEK293, transfected, in living cells; not shown: Rluc, N-terminal, kept
For B3, the “EC50 of bombykal for the BRET increase (quantity not given)” value [9] was 91.1 ± 1.61 nM.
